PMC10581246, “The presence of benzene ring activating CoA ligases for aromatics degradation in the ANaerobic MEthanotrophic (ANME) archaea” (Microbiology Spectrum, 2023)

Experiments:
Experiment in all cases: purified protein
Conditions in all cases: apparent, 1 mM ATP, 0.5 mM CoA, 10 mM MgCl2, 50 mM Tris-HCl pH 8.0, room temperature
[1] = system: O=C(O)c1ccc(O)cc1
[2] = system: O=C(O)c1cccc(O)c1
[3] = system: O=C(O)c1ccccc1
[4] = system: O=C(O)Cc1cccc(O)c1
[5] = system: O=C(O)Cc1ccccc1
[6] = system: O=C(O)Cc1ccc(O)cc1
[7] = system: O=C(O)Cc1ccc(O)c(O)c1

Row | Substance | Km [1] [µM] | kcat [1] [s⁻¹] | Km [2] [µM] | kcat [2] [s⁻¹] | Km [3] [µM] | kcat [3] [s⁻¹] | Km [4] [µM] | kcat [4] [s⁻¹] | Km [5] [µM] | kcat [5] [s⁻¹] | Km [6] [µM] | kcat [6] [s⁻¹] | Km [7] [µM] | kcat [7] [s⁻¹]
1 | BadAANME (ANME-2 cluster archaeon) | 55.08 ± 6.910 | 0.1086 ± 0.02963 | 76.97 ± 14.69 | 0.2197 ± 0.01127 | 12.98 ± 1.563 | 0.1127 ± 0.002522 |  |  |  |  |  |  |  | 
2 | PaaKANME (PaaK1ANME) (ANME-2 cluster archaeon) |  |  |  |  |  |  | 68.87 ± 9.425 | 0.254 ± 0.00895 | 180.6 ± 32.18 | 0.153 ± 0.00755 | 49.15 ± 12.54 | 0.148 ± 0.00881 | 42.80 ± 15.03 | 0.0976 ± 0.00722
